From the supplement of paper PMC10567573

B1: CDKN1A (parent)
chain: RRQTSMTDFYHSKRRLIFSKRKP

Variants of: B1
Assay: protein stability index of a GFP-peptide fusion (GPS, HEK-293T) (PSI 1-6); higher = more stable
Conditions: c terminus: native
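Also: lentivirally expressed fusions sorted by FACS into six bins by GFP to DsRed ratio, PSI derived from sequencing read proportions per bin multiplied by bin number.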

Row | Variant | protein stability index
1 | RRQTSMTDFYHSKRRLIFSMRKP [K20M] | 1.81
2 | RRQTSMTDFYHSKRRLIFSYRKP [K20Y] | 1.9
3 | RRQTSMTDFYHSKRRLIFSPRKP [K20P] | 1.54
4 | RRQTSMTDFYHSKRRLIFSVRKP [K20V] | 2.1
5 | RRQTSMTDFYHSKRRLIFSNRKP [K20N] | 1.03
6 | RRQTSMTDFYHSKRRLIFSERKP [K20E] | 2.33
7 | RRQTSMTDFYHSKRRLIFSFRKP [K20F] | 2.31
8 | RRQTSMTDFYHSKRRLIFSRRKP [K20R] | 2.21
9 | RRQTSMTDFYHSKRRLIFSARKP [K20A] | 2.73
10 | RRQTSMTDFYHSKRRLIFSSRKP [K20S] | 2.23
11 | RRQTSMTDFYHSKRRLIFHKRKP [S19H] | 1.53
12 | RRQTSMTDFYHSKRRLIFPKRKP [S19P] | 2.08
13 | RRQTSMTDFYHSKRRLIFQKRKP [S19Q] | 2.08
14 | RRQTSMTDFYHSKRRLIFNKRKP [S19N] | 1.85
15 | RRQTSMTDFYHSKRRLIFIKRKP [S19I] | 2.54
16 | RRQTSMTDFYHSKRRLIFDKRKP [S19D] | 1.43
17 | RRQTSMTDFYHSKRRLIFCKRKP [S19C] | 2.57
18 | RRQTSMTDFYHSKRRLIFWKRKP [S19W] | 1.71
19 | RRQTSMTDFYHSKRRLIFLKRKP [S19L] | 2.33
20 | RRQTSMTDFYHSKRRLIFMKRKP [S19M] | 2.96
21 | RRQTSMTDFYHSKRRLIFYKRKP [S19Y] | 2.84
22 | RRQTSMTDFYHSKRRLIFKKRKP [S19K] | 1.91
23 | RRQTSMTDFYHSKRRLIFAKRKP [S19A] | 2.87
24 | RRQTSMTDFYHSKRRLIFRKRKP [S19R] | 2.46
25 | RRQTSMTDFYHSKRRLIFTKRKP [S19T] | 1.77

Row | Variant | protein stability index
26 | RRQTSMTDFYHSKRRLIFFKRKP [S19F] | 2.44
27 | RRQTSMTDFYHSKRRLIVSKRKP [F18V] | 2.3
28 | RRQTSMTDFYHSKRRLITSKRKP [F18T] | 2.45
29 | RRQTSMTDFYHSKRRLIWSKRKP [F18W] | 2.28
30 | RRQTSMTDFYHSKRRLIKSKRKP [F18K] | 2.26
31 | RRQTSMTDFYHSKRRLILSKRKP [F18L] | 1.65
32 | RRQTSMTDFYHSKRRLIASKRKP [F18A] | 2.87
33 | RRQTSMTDFYHSKRRLICSKRKP [F18C] | 1.69
34 | RRQTSMTDFYHSKRRLIDSKRKP [F18D] | 3.34
35 | RRQTSMTDFYHSKRRLISSKRKP [F18S] | 3.17
36 | RRQTSMTDFYHSKRRLIQSKRKP [F18Q] | 1.79
37 | RRQTSMTDFYHSKRRLIPSKRKP [F18P] | 2.82
38 | RRQTSMTDFYHSKRRLIYSKRKP [F18Y] | 2.46
39 | RRQTSMTDFYHSKRRLIRSKRKP [F18R] | 2.05
40 | RRQTSMTDFYHSKRRLIISKRKP [F18I] | 2.23
41 | RRQTSMTDFYHSKRRLIESKRKP [F18E] | 3.49
42 | RRQTSMTDFYHSKRRLIFSKIKP [R21I] | 4.52
43 | RRQTSMTDFYHSKRRLIFSKLKP [R21L] | 2.67
44 | RRQTSMTDFYHSKRRLIFSKAKP [R21A] | 2.5
45 | RRQTSMTDFYHSKRRLIFSKMKP [R21M] | 3.37
46 | RRQTSMTDFYHSKRRLIFSKKKP [R21K] | 3.61
47 | RRQTSMTDFYHSKRRLIFSKTKP [R21T] | 3.55
48 | RRQTSMTDFYHSKRRLIFSKGKP [R21G] | 3.01
49 | RRQTSMTDFYHSKRRLIFSKCKP [R21C] | 3.54
50 | RRQTSMTDFYHSKRRLIFSKYKP [R21Y] | 2.97

Row | Variant | protein stability index
51 | RRQTSMTDFYHSKRRLIFSKVKP [R21V] | 3.09
52 | RRQTSMTDFYHSKRRLIFSKSKP [R21S] | 3.09
53 | RRQTSMTDFYHSKRRLIFSKNKP [R21N] | 2.79
54 | RRQTSMTDFYHSKRRLIFSKQKP [R21Q] | 2.4
55 | RRQTSMTDFYHSKRRLIFSKEKP [R21E] | 3.44
56 | RRQTSMTDFYHSKRRLIFSKPKP [R21P] | 2.73
57 | RRQTSMTDFYHSKRRLIFSKFKP [R21F] | 2.03
58 | RRQTSMTDFYHSKRRYIFSKRKP [L16Y] | 1.65
59 | RRQTSMTDFYHSKRRQIFSKRKP [L16Q] | 2.53
60 | RRQTSMTDFYHSKRRSIFSKRKP [L16S] | 2.86
61 | RRQTSMTDFYHSKRRTIFSKRKP [L16T] | 2.17
62 | RRQTSMTDFYHSKRRPIFSKRKP [L16P] | 3.36
63 | RRQTSMTDFYHSKRRLIFSKRKI [P23I] | 2.74
64 | RRQTSMTDFYHSKRRLIFSKRKC [P23C] | 3.15
65 | RRQTSMTDFYHSKRRLIFSKRKF [P23F] | 2.76
66 | RRQTSMTDFYHSKRRLIFSKRKK [P23K] | 2.95
67 | RRQTSMTDFYHSKRRLIFSKRKD [P23D] | 2.49
68 | RRQTSMTDFYHSKRRLIFSKRKA [P23A] | 1.85
69 | RRQTSMTDFYHSKRRLIFSKRKW [P23W] | 3.55
70 | RRQTSMTDFYHSKRRLIFSKRKV [P23V] | 2.57
71 | RRQTSMTDFYHSKRRLIFSKRKG [P23G] | 2.48
72 | RRQTSMTDFYHSKRRLIFSKRKL [P23L] | 2.84
73 | RRQTSMTDFYHSKRRLIFSKRKM [P23M] | 2.46
74 | RRQTSMTDFYHSKRRLKFSKRKP [I17K] | 1.86
75 | RRQTSMTDFYHSKRRLLFSKRKP [I17L] | 3.47

Row | Variant | protein stability index
76 | RRQTSMTDFYHSKRRLPFSKRKP [I17P] | 3.06
77 | RRQTSMTDFYHSKRRLEFSKRKP [I17E] | 3.68
78 | RRQTSMTDFYHSKRRLGFSKRKP [I17G] | 1.79
79 | RRQTSMTDFYHSKRRLMFSKRKP [I17M] | 3.71
80 | RRQTSMTDFYHSKRRLSFSKRKP [I17S] | 2.99
81 | RRQTSMTDFYHSKRRLTFSKRKP [I17T] | 2.63
82 | RRQTSMTDFYHSKRRLAFSKRKP [I17A] | 2.48
83 | RRQTSMTDFYHSKRRLYFSKRKP [I17Y] | 2.76
84 | RRQTSMTDFYHSKRRLIFSKRTP [K22T] | 2.58
85 | RRQTSMTDFYHSKRRLIFSKRDP [K22D] | 1.85
86 | RRQTSMTDFYHSKRRLIFSKRLP [K22L] | 1.74
87 | RRQTSMTDFYHSKRRLIFSKRRP [K22R] | 4.35
88 | RRQTSMTDFYHSKRRLIFSKRWP [K22W] | 2.91
89 | RRQTSMTDFYHSKRRLIFSKRQP [K22Q] | 2.42
90 | RRQTSMTDFYHSKRRLIFSKRVP [K22V] | 3.36
91 | RRQTSMTDFYHSKRRLIFSKRYP [K22Y] | 2.55
92 | RRQTSMTDFYHSKRRLIFSKRMP [K22M] | 3.93
93 | RRQTSMTDFYHSKRRLIFSKRNP [K22N] | 3.35
94 | RRQTSMTDFYHSKRRLIFSKRAP [K22A] | 1.72
95 | RRQTSMTDFYHSKRRLIFSKRSP [K22S] | 3.2
96 | RRQTSMTDFYHSKRRLIFSKRFP [K22F] | 1.77
97 | RRQTSMTDFYHSKRRLIFSKRIP [K22I] | 2.35
